{"source": "patent US20250109178A1", "about": "(XYPHOS BIOSCIENCES, published 2025)", "key": {"Fc-NKG2D.Y152A [1]": {"target": "T1, Fc-NKG2D.Y152A (human)", "T1 construct": "also called NKG2D.YA; Fc-NKG2D.YA", "T1 sequence (chain, as listed by the source Y152A Y152A limits assumed)": "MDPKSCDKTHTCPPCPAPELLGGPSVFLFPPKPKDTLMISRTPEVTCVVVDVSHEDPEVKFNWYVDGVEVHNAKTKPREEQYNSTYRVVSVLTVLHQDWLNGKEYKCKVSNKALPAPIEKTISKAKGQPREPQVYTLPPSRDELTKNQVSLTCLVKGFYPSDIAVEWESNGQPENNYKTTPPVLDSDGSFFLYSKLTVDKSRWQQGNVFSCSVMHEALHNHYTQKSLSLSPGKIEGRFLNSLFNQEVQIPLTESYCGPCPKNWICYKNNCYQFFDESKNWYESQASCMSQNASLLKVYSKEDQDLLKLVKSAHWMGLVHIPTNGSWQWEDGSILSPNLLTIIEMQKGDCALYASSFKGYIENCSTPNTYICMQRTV", "test": "ELISA and Octet"}, "[2]": {"target": "T2, Fc-NKG2D.wt (natural human NKG2D ectodomain fused to the C-terminus of human IgG1 Fc) (human)", "T2 construct": "also called natural Fc-NKG2D; wild-type Fc-NKG2D", "T2 sequence (chain, as listed by the source limits assumed)": "as the sequence (chain, as listed by the source Y152A Y152A limits assumed) above, with A312Y counted along it", "test": "ELISA, rituximab MicAbody on Fc-NKG2D (legend of FIGS. 16A and 16B)"}, "[3]": {"target": "T2, Fc-NKG2D.wt (natural human NKG2D …)", "test": "titration ELISA, Fc-NKG2D coated, rituximab MicAbody titrated"}, "Fc-NKG2D.Y152A [4]": {"target": "T1, Fc-NKG2D.Y152A", "test": "ELISA, Fc-eNKG2D coated, MicAbody titrated from 300 nM", "protocol": "(§1) The binding affinities of α1-α2 variants to the extracellular domains of natural (wild-type) NKG2D and non-natural eNKG2D proteins were analyzed using a plate-based ELISA method. […] The plates were washed three times in PBS/0.05% Tween-20 (PBS-T) at 20-22° C., and blocked with 0.5% bovine serum albumin in PBS (PBS-B) for 2 hours at 20-22° C."}, "[5]": {"target": "T2, Fc-NKG2D.wt (natural human NKG2D …)", "test": "ELISA, Fc-NKG2D coated, MicAbody titrated from 300 nM (GraphPad Prism)", "protocol": "as §1"}, "[6]": {"target": "T2, Fc-NKG2D.wt (natural human NKG2D …)", "test": "ELISA, Fc-NKG2D coated, rituximab MicAbody titrated (FIGS. 16A and 16B)"}, "[7]": {"target": "Fc-NKG2D.AF, eNKG2D5 (Y152A/Y199F) (human)", "sequence (chain, as listed by the source Y152A Y199F Y152A Y199F limits assumed)": "as the sequence (chain, as listed by the source Y152A Y152A limits assumed) above, with Y359F counted along it", "test": "ELISA, Fc-NKG2D coated, rituximab MicAbody titrated (FIGS. 16A and 16B)"}, "Fc-NKG2D.Y152A [8]": {"target": "T1, Fc-NKG2D.Y152A", "test": "ELISA, Fc-NKG2D coated, rituximab MicAbody titrated (FIGS. 16A and 16B)"}}}
{"binder": "ULBP2.S3 α1-α2 domain, monomeric His-tagged format (ligand, also called ULBP2.S3 (monomeric His-tagged); not shown: His tag) EPHSLSYDITVIPKFRPGPRWCAVQGQVDEKTFLHYDCGNKTVTPVSPLGKKLNVTTAWKAQNPVLREVVDILTEQLWDIQLENYTPKEPLTLQARMSCEQKAEGHSSGSWQFSFDGQIFLLFDSEKRMWTTVHPGARKMKEKWENDKVVATKLYLWSMGDCIGWLEDFLMGMDSTLEPS", "values": [{"measurement": "binding result", "setting": "Fc-NKG2D.Y152A [1]", "value": "binds"}]}
{"binder": "rituximab-ULBP2.R80W MicAbody (bispecific antibody, human IgG1, kappa, N297A) heavy: QVQLQQPGAELVKPGASVKMSCKASGYTFTSYNMHWVKQTPGRGLEWIGAIYPGNGDTSYNQKFKGKATLTADKSSSTAYMQLSSLTSEDSAVYYCARSTYYGGDWYFNVWGAGTTVTVSAASTKGPSVFPLAPSSKSTSGGTAALGCLVKDYFPEPVTVSWNSGALTSGVHTFPAVLQSSGLYSLSSVVTVPSSSLGTQTYICNVNHKPSNTKVDKKVEPKSCDKTHTCPPCPAPELLGGPSVFLFPPKPKDTLMISRTPEVTCVVVAVSHEDPEVKFNWYVDGVEVHNAKTKPREEQYASTYRVVSVLTVLHQDWLNGKEYKCKVSNKALPAPIEKTISKAKGQPREPQVYTLPPSRDELTKNQVSLTCLVKGFYPSDIAVEWESNGQPENNYKTTPPVLDSDGSFFLYSKLTVDKSRWQQGNVFSCSVMHEALHNHYTQKSLSLSPGGGGSEPHSLSYDITVIPKFRPGPRWCAVQGQVDEKTFLHYDCGNKTVTPVSPLGKKLNVTTAWKAQNPVLREVVDILTEQLWDIQLENYTPKEPLTLQARMSCEQKAEGHSSGSWQFSFDGQIFLLFDSEKRMWTTVHPGARKMKEKWENDKVVAMSFHYFSMGDCIGWLEDFLMGMDSTLEPS light: QIVLSQSPAILSASPGEKVTMTCRASSSVSYIHWFQQKPGSSPKPWIYATSNLASGVPVRFSGSGSGTSYSLTISRVEAEDAATYYCQQWTSNPPTFGGGTKLEIKTVAAPSVFIFPPSDEQLKSGTASVVCLLNNFYPREAKVQWKVDNALQSGNSQESVTEQDSKDSTYSLSSTLTLSKADYEKHKVYACEVTHQGLSSPVTKSFNRGEC", "values": [{"measurement": "binding result", "setting": "[2]", "value": "binds"}]}
{"binder": "rituximab-ULBP2.C MicAbody (bispecific antibody, human IgG1, kappa) heavy: not shown light: QIVLSQSPAILSASPGEKVTMTCRASSSVSYIHWFQQKPGSSPKPWIYATSNLASGVPVRFSGSGSGTSYSLTISRVEAEDAATYYCQQWTSNPPTFGGGTKLEIKTVAAPSVFIFPPSDEQLKSGTASVVCLLNNFYPREAKVQWKVDNALQSGNSQESVTEQDSKDSTYSLSSTLTLSKADYEKHKVYACEVTHQGLSSPVTKSFNRGECAPTSSSGGGGSEPHSLSYDITVIPKFRPGPRWCAVQGQVDEKTFLHYDCGNKTVTPVSPLGKKLNVTTAWKAQNPVLREVVDILTEQLWDIQLENYTPKEPLTLQARMSCEQKAEGHSSGSWQFSFDGQIFLLFDSEKRMWTTVHPGARKMKEKWENDKVVATILWQTSMGDCIGWLEDFLMGMDSTLEPS", "values": [{"measurement": "binding result", "setting": "[3]", "value": "no binding"}]}
{"binder": "ULBP2.wt rituximab-MicAbody (bispecific antibody, human IgG1, kappa, Rituximab IgG1 with wild-type ULBP2 α1-α2 domain fused to the light chain; bivalent for the α1-α2 domain; also called ULBP2 MicAbody; ULBP2 wild-type MicAbody) heavy: not shown light: QIVLSQSPAILSASPGEKVTMTCRASSSVSYIHWFQQKPGSSPKPWIYATSNLASGVPVRFSGSGSGTSYSLTISRVEAEDAATYYCQQWTSNPPTFGGGTKLEIKRTVAAPSVFIFPPSDEQLKSGTASVVCLLNNFYPREAKVQWKVDNALQSGNSQESVTEQDSKDSTYSLSSTLTLSKADYEKHKVYACEVTHQGLSSPVTKSFNRGECAPTSSSGGGGSEPHSLSYDITVIPKFRPGPRWCAVQGQVDEKTFLHYDCGNKTVTPVSPLGKKLNVTTAWKAQNPVLREVVDILTEQLRDIQLENYTPKEPLTLQARMSCEQKAEGHSSGSWQFSFDGQIFLLFDSEKRMWTTVHPGARKMKEKWENDKVVAMSFHYFSMGDCIGWLEDFLMGMDSTLEPS", "values": [{"measurement": "binding result", "setting": "Fc-NKG2D.Y152A [4]", "value": "binds"}, {"measurement": "Kd", "setting": "[5]", "value": 1.4, "unit": "nM"}]}
{"binder": "rituximab-ULBP2.S3 MicAbody (bispecific antibody, human IgG1, kappa, also called ULBP2.S3 as a MicAbody) heavy: not shown light: QIVLSQSPAILSASPGEKVTMTCRASSSVSYIHWFQQKPGSSPKPWIYATSNLASGVPVRFSGSGSGTSYSLTISRVEAEDAATYYCQQWTSNPPTFGGGTKLEIKRTVAAPSVFIFPPSDEQLKSGTASVVCLLNNFYPREAKVQWKVDNALQSGNSQESVTEQDSKDSTYSLSSTLTLSKADYEKHKVYACEVTHQGLSSPVTKSFNRGECAPTSSSGGGGSEPHSLSYDITVIPKFRPGPRWCAVQGQVDEKTFLHYDCGNKTVTPVSPLGKKLNVTTAWKAQNPVLREVVDILTEQLWDIQLENYTPKEPLTLQARMSCEQKAEGHSSGSWQFSFDGQIFLLFDSEKRMWTTVHPGARKMKEKWENDKVVATKLYLWSMGDCIGWLEDFLMGMDSTLEPS", "values": [{"measurement": "binding result", "setting": "[6]", "value": "no binding"}, {"measurement": "binding result", "setting": "[7]", "value": "no binding"}]}
{"binder": "rituximab-ULBP2.R MicAbody (bispecific antibody, human IgG1, kappa, also called ULBP2.R rituximab-MicAbody; rituximab-MicAbody) heavy: not shown light: QIVLSQSPAILSASPGEKVTMTCRASSSVSYIHWFQQKPGSSPKPWIYATSNLASGVPVRFSGSGSGTSYSLTISRVEAEDAATYYCQQWTSNPPTFGGGTKLEIKRTVAAPSVFIFPPSDEQLKSGTASVVCLLNNFYPREAKVQWKVDNALQSGNSQESVTEQDSKDSTYSLSSTLTLSKADYEKHKVYACEVTHQGLSSPVTKSFNRGECAPTSSSGGGGSEPHSLSYDITVIPKFRPGPRWCAVQGQVDEKTFLHYDCGNKTVTPVSPLGKKLNVTTAWKAQNPVLREVVDILTEQLWDIQLENYTPKEPLTLQARMSCEQKAEGHSSGSWQFSFDGQIFLLFDSEKRMWTTVHPGARKMKEKWENDKVVATLLWGWSMGDCIGWLEDFLMGMDSTLEPS", "values": [{"measurement": "binding result", "setting": "[6]", "value": "no binding"}, {"measurement": "binding result", "setting": "Fc-NKG2D.Y152A [8]", "value": "no binding"}]}
